# Reference: the DeepSol protein solubility set
# Test: soluble on expression in E. coli; label from the status in PepcDB or PDB records
row,Sequence,soluble on expression in E. coli
1,MVTPREPKKRTTRKKKDPNAPKRALSAYMFFANENRDIVRSENPDITFGQVGKKLGEKWKALTPEEKQPYEAKAQADKKRYESEKELYNATLA,soluble
2,MPIHVDKPDTMQNELIDIVADGLRSNQIYTFRMILKHDYGTHKSEATFQADPAGRIDLKYAKPLRGSYYDADPMGLFLGMKPCEDFAYGGYLRCTPPVPFYYLLELFDSSGTLIDSTYIKKHWMHPKLIRTELEEDFCATLFKPPGDGPFPVVLDISGTGGGIHEHKGAMLASEGFVVLCLAFFQFKYLPQKMEDVDMEYFAKAINYLIDLPFTKNVIGIQGVSFGATIVDLLTTRHGDKIKALVSINGPQVVSDYLFMQENGAPIPHLSHGQVTLEHCQFINGVMCSHRNFQIMTEKLTPETEIPWERIPSDVKIRVIGSVDDLCQPSVHATYYRQRRLKETGHDVEVELVNGGHIMEPPYFPHHELVYAKYQGFYCGYGGEVVLHAKSQEKTWSNTIKFFQKALGNTKKIQDWDRLTVVVPPRKKSKL,not soluble
3,MTDSELMQLSEQVGQALKARGATVTTAESCTGGWVAKVITDIAGSSAWFERGFVTYSNEAKAQMIGVREETLAQHGAVSEPVVVEMAIGALKAARADYAVSISGIAGPDGGSEEKPVGTVWFAFATARGEGITRRECFSGDRDAVRRQATAYALQTLWQQFLQNT,not soluble
4,MAHHHHHHMINSVYHSKKACVEALRAVERLQPSWWTPPCSEFLHRVEQTPTVTAQPNQKTLIVLEGIDGVGKSLVAQSLIEKLGDSAVLIRTPHPDLSGIRETFRAQTEETARAFYSAANYLAAWDAFHATKERKFVVFDRWWCSTCAMALANSCRLAALPAAGDAVYQWPQDLPPFQLGALLYVEEHIRQARIRQRAPEDAEERRLRAQQEMREVAMEAYRRFGLLNEVHVATYGVAVNRILALMTEKGLPHSATPFSAEELAALRQI,soluble
5,KMPLTIYSADGEVIGMYGEQRREFTKIGDFPEVLRNAVIAAEDKRFYRHWGVDVWGVARAAVGNVVSGSVQSGASTITQQVAKNFYLSSEKTFTRKFNEVLLAYKIEQSLSKDKILELYFNQIYLGQRAYGFASAAQIYFNKNVRDLTLAEAAMLAGLPKAPSAY,not soluble
6,SMSTKGTILVTGGAGYIGSHTAVELLAHGYDVVIADNLVNSKREAIARIEKITGKTPAFHETDVSDERALARIFDAHPITAAIHFAALKAVGESVAKPIEYYRNNLDSLLSLLRVMRERAVKRIVFSSSATVYGVPERSPIDETFPLSATNPYGQTKLMAEQILRDVEAADPSWRVATLRYFNPVGAHESGLIGEDPAGIPNNLMPYVAQVAVGKLEKLRVFGSDYPTPDGTGVRDYIHVVDLARGHIAALDALERRDASLTVNLGTGRGYSVLEVVRAFEKASGRAVPYELVARRPGDVAECYANPAAAAETIGWKAERDLERMCADHWRWQENNPRGFV,soluble
7,MTLVSIVAPNLIEQGKVMEMLQGGRDNAIYRTGDRVSRPASSWTMTVHQLLNHLHSNGFTQCPKVIGIEGGKEWLSFVEGDTFNYPLQGSIASVTALLSAAKMLRRMHDASEDFLISHQSEVCHWMLPDRVPQEVICHGDFMPYNVALNGETVVGVFDFDTAHPAPRLWDVAFSIYGWAPFKTDENDRMGNLEQQIQRAKLFCDAYGCSKLERENLVDVMTLRLTALVDYMRLMASSRDERFQANLEEGHHIAYLQDIDYLRQHHQAITLGMLKER,not soluble
8,MGGSHHHHHHGMASLGMIKNSLFGSVETWPWQVLSKGDKEEVAYEERACEGGKFATVEVTDKPVDEALREAMPKVAKYAGGTNDKGIGMGMTVPISFAVFPNEDGSLQKKLKVWFRIPNQFQSDPPAPSDKSVKIEEREGITVYSMQFGGYAKEADYVAQATRLRAALEGTATYRGDIYFCTGYDPPMKPYGRRNEIWLLKT,not soluble
9,MSLTRAQLEDMPQYQQVYSSINTWPSKKWYVGKGVHLSELLSLVGIKDDARLLKFTSQDGYTMTLTVKELLVDKRYYFPHFNDNKIGDGEGNIAGSSQGAELVEPIIALISVEGSNNPNYMNDLNTLVLMMGQRAVTEQTGNAFVKYLNKIEVLTSEVPKWDSPQANPGSGEVSAGTMIALSTARMDDDKIYYTTDGSTPNLNSPIYNWIAKRWWSARADILGTYNHPIGPINENTTIKAITIGPGKENSDVATFTYTVPVSKPASETSIVAPNEATNYPDQALEKPLQSEPKATLTDVQNHWAQKNINELIASGIAGGYPDSSFRPDNTITRAEFATMLVKAFNLQNQGGKVFADSEQHWAKEYISRATASGVVSGYDAENFGPDKLITREQMAVMISKAAKLVLKAEAMHFADSAGISEWAKEAVLAANQSGIVKGYPDNTIRPQGSATRAEAVTVIVNALTLKEGHHHHHH,not soluble
10,MAHHHHHHMALSSSGSAALGDRIARAAAAAPQWTAQQRCFRQLLKSLRGAYFHDRSKLFWARHRILVEFYKYSRVEEERDVLLLVGIGNEIATFVAEYMKVDVGAIMEHNKKIQSLPVAKAKRYREEYLLHEKQHESWCKQKIRLMMDRRPPPPYPFS,not soluble
11,MRRRSGINTSAVRYCLRKRKDITLLNPIVRKFQYGQHTVTLETGMMARQATAAVMVSMDDTAVFVTVVGQKKAKPGQDFFPLTVNYQERTYAAGRIPGSFFRREGRPSEGETLIARLIDRPIRPLFPEGFVNEVQVIATVVSVNPQVNPDIVAMIGASAALSLSGIPFNGPIGAARVGYINDQYVLNPTQDELKESKLDLVVAGTEAAVLMVESEAELLSEDQMLGAVVFGHEQQQVVIQNINELVKEAGKPRWDWQPEPVNEALNARVAALAEARLSDAYRITDKQERYAQVDVIKSETIATLLAEDETLDENELGEILHAIEKNVVRSRVLAGEPRIDGREKDMIRGLDVRTGVLPRTHGSALFTRGETQALVTATLGTARDAQVLDELMGERTDTFLFHYNFPPYSVGETGMVGSPKRREIGHGRLAKRGVLAVMPDMDKFPYTVRVVSEITESNGSSSMASVCGASLALMDAGVPIKAAVAGIAMGLVKEGDNYVVLSDILGDEDHLGDMDFKVAGSRDGISALQMDIKIEGITKEIMQVALNQAKGARLHILGVMEQAINAPRGDISEFAPRIHTIKINPDKIKDVIGKGGSVIRALTEETGTTIEIEDDGTVKIAATDGEKAKHAIRRIEEITAEIEVGRVYTGKVTRIVDFGAFVAIGGGKEGLVHISQIADKRVEKVTDYLQMGQEVPVKVLEVDRQGRIRLSIKEATEQSQPAAAPEAPAAEQGE,not soluble
12,MAHHHHHHMPNSVDCDFLNAPAHPPCNNRISASSRSRDGASIRNIGSISNIGARNRGARNCDQVIHTVYVKYFEMERYLGNINYNMDYFNPVLNHPTKIEHGKIKILILDAPTNDLLPLYIKEMKNYNVTDLVRTCERTYNDGEITSAGINVHELIFPDGDAPTVDIVSNWLTIVNNVIKNNRAVAVHCVAGLGRAPVLASIVLIEFGMDPIDAIVFIRDRRKGAINKRQLQFLKAYKKKKKKKNCLRKCHFM,not soluble
13,MYTLNWQPPYDWSWMLGFLAARAVSSVETVADSYYARSLAVGEYRGVVTAIPDIARHTLHINLSAGLEPVAAECLAKMSRLFDLQCNPQIVNGALGRLGAARPGLRLPGCVDAFEQGVRAILGQLVSVAMAAKLTARVAQLYGERLDDFPEYICFPTPQRLAAADPQALKALGMPLKRAEALIHLANAALEGTLPMTIPGDVEQAMKTLQTFPGIGRWTANYFALRGWQAKDVFLPDDYLIKQRFPGMTPAQIRRYAERWKPWRSYALLHIWYTEGWQPDEA,soluble
14,MIVIEGSDKFKIAKEYIDVEYTLFSKVTFRYEKLKFKDNAELEKIKMFKYKNGYIPNKLNLSFGYGFSSYKKQIIRETVDTLRLTEIFSSENIEDIKFIKDGTKKLEISIEKVVKFKRRKKRNYVCCYCPDMYRDIKLDKESINKIYNRKIKIEREVNIFEDEDVIINKKVLKFPKSWTKNMQKYWLSENKYPIHSTVIDDDRYKCCNVQYTKNRVIILYYIYNH,not soluble
15,QCTNGFDLDRQSGQCLDIDECRTIPEACRGDMMCVNQNGGYLCIPRTNPVYRGPYSNPYSTPYSGPYPAAAPPLSAPNYPTISRPLICRFGYQMDESNQCVDVDECATDSHQCNPTQICINTEGGYTCSCTDGYWLLEGQCLDIDECRYGYCQQLCANVPGSYSCTCNPGFTLNEDGRSCQDVNECATENPCVQTCVNTYGSFICRCDPGYELEEDGVHCSDMDECSFSEFLCQHECVNQPGTYFCSCPPGYILLDDNRSCQDINECEHRNHTCNLQQTCYNLQGGFKCIDPIRCEEPYLRISDNRCMCPAENPGCRDQPFTILYRDMDVVSGRSVPADIFQMQATTRYPGAYYIFQIKSGNEGREFYMRQTGPISATLVMTRPIKGPREIQLDLEMITVNTVINFRGSSVIRLRIYVSQYPF,soluble
16,MGSDKIHHHHHHMTPRISQKEVNDAVWNACDTFRGVVDASAYKDYVLTMLFLKYISDVWQDNYDTYKAEYGDAPELIEEMMKNERFVLPKDASFYALYERRFEAGNGERIDKALHAIEEANMGKLNDVFQDISFNSTKLGDDKQKNDILRHMLEDFSKPELNLRPSRIGNLDIIGNAYEFLIKHFAASSGKKAGEFYTPPEVSQLIAELVNPQEGDEICDPACGSASLLMKCAKLIKDRFGNRKYALYGQEAIGSTWSLAKMNMFLHSEDNHRIEWGDTLRNPLLLDGDDHLKHFDIVVANPPFSLDKWGHEAAEADRFGRFRRGIPPKTKGDYAFILHMIETLKPGTGRMGVVVPHGVLFRASSEGEIRKQLIKENLLDMVIGLPEKLFYGTGIPAAILVFRKNKKDNNVLFIDASREYQDGKNQNFLRDEDIQKVLDTAKARESVDKYAYLATLEEIRENDFNLNIPRYVDTFEEEEEIDLEAVLKERKELKADLAKLEVEMEGYLKELGYLTGEE,not soluble
17,MPKDNTWYTGAKLGWSQYSRENQLGAGAFGGYQVNPYVGFEMGYDWLGRMPRKAQGVQLTAKLGYPKLGTDDLDIYTRLGGMVWRADTSDKDGNGYISAAEASVSPVFAGGVEYVIRRRITPEIATRLEYQWTNNASDNGMLSLGVSYRFGQGEAA,soluble
18,MGHHHHHHSHKIRVAHTPDADDAFMFYAMTHGKVDTWLEIEHVIEDIETLNRKAFNAEYEVTAISAHAYALLDDKYRILSAGASVGDGYGPVVVAKSEISLDGKRIAVPGRYTTANLLLKLAVEDFEPVEMPFDRIIQAVLDEEVDAGLLIHEGQITYADYGLKCVLDLWDWWSEQVKLPLPLGLNAIRRDLSVEVQEEFLRAMRESIAFAIENPDEAIEYAMKYSRGLDRERAKRFAMMYVNDYTYNMPESVDAALKKLYEMAEAKGLI,not soluble
19,AETTVKPTKLAVIGAGAVGSTLAFAAAQRGIAREIVLEDIAKERVEAEVLDMQHGSSFYPTVSIDGSDDPEICRDADMVVITAGPRQKPGQSRLELVGATVNILKAIMPNLVKVAPNAIYMLITNPVDIATHVAQKLTGLPENQIFGSGTNLDSARLRFLIAQQTGVNVKNVHAYIAGEHGDSEVPLWESATIGGVPMSDWTPLPGHDPLDADKREEIHQEVKNAAYKIINGKGATNYAIGMSGVDIIEAVLHDTNRILPVSSMLKDFHGISDICMSVPTLLNRQGVNNTINTPVSDKELAALKRSAETLKETAAQFGF,soluble
20,MGSSHHHHHHSSGLVPRGSHMKAIALISGGKDSFLSAYIAMQQGFDIVRAMIVRPQEYSYMFHFPNVDKAGYVAGMLGIEPEFVLEDGFQQRVKEYASDGVKAIVSGAIASEFQKTRLERIATEFSIISYTPLWKVDQHRVMRDILDAGIRAMIVSVSAEGFSENDLGREIDDKYLERLYHLEKRYGINITGEGGEYETFVFGFGNKYISVKGHRIWKGSGGYFNIDSVEERPDSC,soluble
21,MKKDNTVFNDLQASLKQAVAIRQGKMPPSRVFKVETVDVKATREKTHMSQTEFAKAIHVSVRTLQNWEQGHRNPTGPAVALLKIVASAPDIAVRALRTA,not soluble
